Columns and labels:
[1] = test system: p-AKT(Ser473) in primary hippocampal neurons; experiment: Akt (Ser473) phosphorylation in primary hippocampal neurons (antibody array, western blot); assay type: cell-based, mouse; settings: 1 μg/ml TIMP3, 15 mins
Protocol: (§1) SH-SY5Y cells were obtained from ATCC (Cat# CRL-2266, Manassas, Va.) and were cultured in DMEM and 10% FBS up to passage 10. For differentiation of SH-SY5Y cells into a neuronal phenotype, cells were first plated in DMEEM+10% FBS for 24 hrs before exchanging media in DMEM+1% FBS 10 μM retinoic acid. Differentiation was performed for 3 days before experimentation. Hippocampal neurons were prepared according to the protocol by Beaudoin et al. (Nature Protocols 2012; 7(9):1741-1754) with minor modifications. In brief, after trypsin digestion of hippocampi isolated from P1 mouse pups single cell suspensions was created by trituration and plated onto Biocoat™ poly-D-lysine coated 12-well plates (Cat#354470, BD Biosciences, San Jose, Calif.). […]
Pathscan Antibody™ array kits were purchased from Cell Signaling Technologies (Danvers, Mass.). PathScan® RTK signaling antibody array kit (Fluorescent Readout, Cat#7949) and PathScan™ Akt signaling antibody array kit (Fluorescent Readout, Cat#9700) were performed as per manufacturer's instructions. Imaging was performed on a LI-COR Odyssey™ infrared scanner and pixel densities measured by in house LI-COR Image™ suite software. […]
Lysates was analyzed in conjuncture with the LI-COR Odyssey™ infra-red imaging system. […] After further wash steps images were obtained using a LI-COR™ Odyssey scanner and quantified using LI-COR™ Image Studio software. […]

[2] = test system: phospho-AKT(Ser473) in SH-SY5Y cells; experiment: Akt (Ser473) phosphorylation in differentiated SH-SY5Y cells (antibody array, western blot, Phosflow); assay type: cell-based, human
Protocol: SH-SY5Y cells were obtained from ATCC (Cat# CRL-2266, Manassas, Va.) and were cultured in DMEM and 10% FBS up to passage 10. For differentiation of SH-SY5Y cells into a neuronal phenotype, cells were first plated in DMEEM+10% FBS for 24 hrs before exchanging media in DMEM+1% FBS 10 μM retinoic acid. Differentiation was performed for 3 days before experimentation. Hippocampal neurons were prepared according to the protocol by Beaudoin et al. (Nature Protocols 2012; 7(9):1741-1754) with minor modifications. In brief, after trypsin digestion of hippocampi isolated from P1 mouse pups single cell suspensions was created by trituration and plated onto Biocoat™ poly-D-lysine coated 12-well plates (Cat#354470, BD Biosciences, San Jose, Calif.). 2 pups were used per well and cell suspensions were incubated for 10 minutes per well for a total of 6 wells. The serial incubation allowed for variation in cell densities applicable to different experiments but also contributed to the reduction in non-neuronal cells. Typically wells 1-2 were pooled for western blotting and wells 4-5 were used for imaging following treatments. After the initial plating cells were incubated for 2 hrs before media was completely exchanged for maintenance media that was supplemented with 1 μM of the anti-mitotic cytosine arabinoside in order to further reduce non-neuronal cells. For western blot, cells were cultured for 7 days before experimentation. Half of maintenance media was exchanged on day 2 and day 5. For morphology experiments, treatments were initiated upon the introduction of maintenance media and was renewed 48 hrs later for a further 24 hrs of treatment. Experiments were terminated by fixation for 20 minutes with 4% paraformaldehyde after which cells were stored at 4° C. in PBS prior to staining protocols.
(§2) Pathscan Antibody™ array kits were purchased from Cell Signaling Technologies (Danvers, Mass.). PathScan® RTK signaling antibody array kit (Fluorescent Readout, Cat#7949) and PathScan™ Akt signaling antibody array kit (Fluorescent Readout, Cat#9700) were performed as per manufacturer's instructions. Imaging was performed on a LI-COR Odyssey™ infrared scanner and pixel densities measured by in house LI-COR Image™ suite software.
After experimentation, SH-SY5Y cells were detached from culture ware via trypsin digestion and rapidly mixed with an equal volume of BD cytofix fixation buffer (Cat#554655. BD Biosciences, San Jose, Calif.). After wash steps with PBS cells were permeabilized with BD phosflow Perm Buffer III (Cat#558050. BD Biosciences, San Jose, Calif.) and incubated on ice for 30 mins. After washing in BD stain buffer (Cat#554657. BD Biosciences, San Jose, Calif.) cells were counted and 1×10^6 cells were used antibody incubation. Negative IgG compensation control was obtained using ABC control beads (Cat# A10344. Life Technologies, Grand Island, N.Y.). Antibody incubations were conducted for 30 mins at RT in the dark. Following wash steps the volume was adjusted to 500 μl and results obtained using and LSR II flow cytometer and analyzed using Flowjo™ cytometric analytical software version 8.8.7.
(§3) Cell lysates for western blotting were prepared with RIPA buffer (Cat#89900. Thermofisher Scientific, Rockford, Ill.) supplemented with phosphatase inhibitor cocktail 2 (Cat# P5726. Sigma, St Louis, Mo.), phosphatase inhibitor cocktail 3 (Cat# P0044. Sigma, St Louis, Mo.) and complete protease inhibitor (Cat#1862209. Thermofisher Scientific, Rockford, Ill.). Complete homogenization was ensured by brief sonication using a Branson Sonifier 150, (Branson Ultrasonics Corporation, Danbury, Conn.). Protein content was quantified with a Pierce BCA protein assay kit per manufacturer's instructions (Cat#23225. Thermofisher Scientific, Rockford, Ill.).
(§4) Lysates was analyzed in conjuncture with the LI-COR Odyssey™ infra-red imaging system. […]

[3] = test system: S6 Ribosomal Protein (S235/236) in SH-SY5Y cells; experiment: S6 Ribosomal Protein (S235/236) phosphorylation in SH-SY5Y cells; assay type: cell-based, human; settings: 1 μg/ml TIMP3, 15 mins
Protocol: as §1, with “Calif.). 2 pups were used per well and cell suspensions were incubated for 10 minutes per well for a total of 6 wells. The serial incubation allowed for variation in cell densities applicable to different experiments but also contributed to the reduction in non-neuronal cells.” for “Calif.).”
as §2
as §3, with “Complete homogenization was ensured by brief sonication using a Branson Sonifier 150, (Branson Ultrasonics Corporation, Danbury, Conn.).” left out
as §4

B1: TIMP3: Recombinant tissue inhibitor of matrix metalloproteinase-3, a soluble protein released by MSCs, obtained from Amgen Inc. (protein)
chain: CTCSPSHPQDAFCNSDIVIRAKVVGKKLVKEGPFGTLVYTIKQMKMYRGFTKMPHVQYIHTEASESLCGLKLEVNKYQYLLTGRVYDGKMYTGLCNFVERWDQLTLSQRKGLNYRYHLGCNCKIKSCYYLPCFVTSKNECLWTDMLSNFGYPGYQSKHYACIRQKGGYCSWYRGWAPPDKSIINATDP
p-AKT(Ser473), fluorescent antibody signaling array [1]: activates p-AKT(Ser^473)
p-AKT(Ser473), western blot [1]: activates p-AKT(Ser^473)
p-AKT(Ser473), Phosflow cytometry ([2]; 1 μg/ml TIMP3, 15 mins): activates p-AKT(Ser^473)
p-AKT(Ser473), western blot ([2]; 1 μg/ml TIMP3, 15 mins): activates p-AKT(Ser^473)
phospho-AKT(Ser473), fluorescent antibody signaling array ([2]; 1 μg/ml TIMP3, 15 mins): activates phospho-AKT(Ser^473)
p-AKT(Ser473), Phosflow cytometry ([2]; 1 μg/ml TIMP3, 45 minutes): activates p-AKT(Ser^473)
S6 Ribosomal Protein (S235/236) activation, western blot [3]: activates S6 Ribosomal Protein (S^235/236)
S6 Ribosomal Protein (S235/236) phosphorylation, antibody array [3]: phosphorylates mTORC1 pathway target S6 Ribosomal Protein (S^235/236)
